Patent US20100136664A1, “CARBOXIN […] FOR FLAMMULINA VELUTIPES” (MYCOMAGIC BIOTECHNOLOGY CO., LTD., priority 2008, published 2010)

Tested on: Flammulina velutipes
Test: Test for the function of Cbr sequence: growth of transformed strains on PDA plate medium containing carboxin
Type: cell-based
Conditions: ten transformed Flammulina velutipes strains (electroporation, pMush-A-mFvCbr) cultured in PDA plate medium containing 2 mg/ml carboxin for one week
Experimental: The vector for expressing mutant Cbr sequence is pMush-A vector containing GPD promoter (pGPD) and hygromycin resistance (hyg) marker. The mutant Cbr sequence preserved in mFvCbrAMV vector (FIG. 1B) and pMush-A vector were sliced with BamH I and Spe I, respectively. The mutant Cbr sequence (mFvCbr) was ligated to the corresponding sites in pMush-A vector using T4 DNA ligase. The constructed vector is called pMush-A-mFvCbr (FIG. 2B).
The mycelia of Flammulina velutipes were cultured in PDB medium at 25° C. for 1-2 weeks. The resulting mycelia were disrupted by a homogenizator and then treated with lysing enzyme solution containing lysing enzyme (Sigma, St. Louis, Mo., U.S.A.), mannitol and potassium phosphate buffer. The resulting mycelial fragments were dissolved in 100 μl electroporation buffer solution as the competent cells used in the electroporation. The well-prepared competent cells were added to the mutant Cbr DNA solution obtained from Example 2 and then placed on ice for 10 minutes. An electroporation was conducted for the resulting solution using Electro Cell Manipulator ECM 630 Electroporation System (BTX, San Diego, Calif., U.S.A.) to obtain transformed mycelia. […] Ten transformed strains were selected and cultured in PDA plate medium containing 2 mg/ml carboxin for one week. […]

B1: mutant Cbr DNA: Flammulina velutipes succinate dehydrogenase iron-sulfur protein gene with point mutation His238 to Leu (CAC→CTC), SEQ ID NO: 1 (nucleic acid)
DNA: ATGCAGTCCGTCGCCCGTCGTTTCTCTGCCGCCGCCGTGCGCCGTAGCTTTTCTACCACTTCTGTCGCGTTCCAGGCTACACCGCTCGAGAAGCCCGTGCTGAACAAGGAATTCAAGATTTACCGCTGGAATCCTGATGAGCCGGAGAAGAAACCGACGCTACAGAGCTACATAATCGACCTGAACCAGACAGGGCCAATGATTCTGGATGCTCTCATCAAGATTAAAAACGAAATCGACCCTACGCTTACCTTCAGACGAAGTTGTCGCGAGGGCATTTGCGGATCTTGTGCGAGAAAAATCGACGGGCAGAACACGTTGGCCTGTCTCTGCAGGATTGATAGGAATGCTGGGAAGGATTCGAAGATCTATCCCTTACCACACAGTGAGTGTCTCATCTGAGCTCTGCGTATCTGAGTGCTAACTTAGATTCCAGTGTACATCGTCAAGGACCTCGTACCGGATCTCACCTACTTCTACAAGCAGTACAAGTCTATCCAACCATACCTTCAGAACGACAACCCACCTGCGTCAGGTCTGTTCATTATTTTGCACCCTCCCCTTTGCTCGGCTTACCGAATCGCTTCTAGGTGAATTCCTCCAAACGCAAGATGACCGCAAGAAGCTCGACGGACTCTACGAGTGTATCCTTTGCGCGTGTTGTTCGACGTCTTGCCCTTCGTATTGGTGGAACCAAGACGAATACCTTGGACCCGCTACTTTGATGCAAGCATATCGCTGGATCGCCGACTCGAGAGTACGTTCTGCTCGTCGTATCATGTTTTATCTCATACTGATATACTCTTAGGACTCTTATGCCGCAGAACGCAAGGAAAAGCTCCAAAACGAGATGAGCATGTACCGATGCCTCACTATCTTCAACTGCTCGCGGACATGCCCCAAGGGTCTCAACCCCGCTGCCGCCATCGCGAAAATCAAGCTTGAGCTTGCGGCCGAGTAA
modifications: Flammulina velutipes
- growth of transformed strains in PDA plate medium containing carboxin (carboxin resistance): Four strains grew
